Results on four molecules are retold here after patent US20140178388A1 (INDUSTRIAL TECHNOLOGY RESEARCH INSTITUTE, published 2014).

Assay [1] has as its target T1, mouse CD3 on mouse spleen T lymphocytes (mouse, UniProt P22646 22-189).
T1 construct: whole, on cells; also called mouse T lymphocytes
Put plainly: flow cytometry (MFI) on purified mouse spleen T lymphocytes, serial dilution. (A flow cytometer gives signals particle by particle.)

The target of assay [2] is T2, human CD3 (TCR-CD3 complex) on human T cells (human, UniProt P07766 23-207).
T2 construct: whole, on cells; The other subunits of the complex on the cells are not described; also called CD3ε chain; CD3(+) Jurkat T cells
Briefly: flow cytometry (MFI) on purified human T lymphocytes, serial dilution.

T1 sequence (P22646 22-189): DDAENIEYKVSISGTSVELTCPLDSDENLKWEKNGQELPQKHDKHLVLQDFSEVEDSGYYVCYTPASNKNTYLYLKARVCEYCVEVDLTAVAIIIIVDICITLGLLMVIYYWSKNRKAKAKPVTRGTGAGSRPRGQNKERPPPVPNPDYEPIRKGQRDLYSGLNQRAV

In assay [1], “hamster anti-mouse CD3 antibody (145-2C11)” returned a Kd of 15 nM.

B1: h145FabCSA trimer (Fab, V domains shown)
VH: EVQLQESGGGLVQPGKSLKLSCEASGFTFSGYGMHWVRQAPGRGLESVAYITSSSINIKYADAVKGRFTVSRDNAKNLLFLQMNILKSEDTAMYYCARFDWDKNYWGQGTMVTVSS
VL: DIQMTQSPSSLPASLGDRVTINCQASQDISNYLNWYQQKPGKAPKLLIYYTNKLADGVPSRFSGSGSGRDSSFTISSLESEDIGSYYCQQYYNYPWTFGPGTKVEIKR
notes: Trimeric Fab-collagen-like peptide fusion from the Superdex 200 peak 2 fraction; Expressed in NS0 cells; also called trimeric h145FabCSA
Turning to B1, in assay [1], the Kd was 4 nM and the “fold greater binding strength than 145-2C11” value is 3.75 fold.

B2: hOKT3FabCSA trimer (Fab, V domains shown)
VH: QVQLVQSGGGVVQPGRSLRLSCKASGYTFTRYTMHWVRQAPGKGLEWIGYINPSRGYTNYNQKVKDRFTISRDNSKNTAFLQMDSLRPEDTGVYFCARYYDDHYCLDYWGQGTPVTVSS
VL: DIQMTQSPSSLSASVGDRVTITCSASSSVSYMNWYQQTPGKAPKRWIYDTSKLASGVPSRFSGSGSGTDYTFTISSLQPEDIATYYCQQWSSNPFTFGQGTKLQITR
notes: Trimeric Fab-collagen-like peptide fusion from the Superdex 200 peak 2 fraction; Expressed in CHO-S cells; also called trimeric hOKT3FabCSA; trivalent hOKT3FabCSA
Regarding B2, in assay [2], the affinity, expressed as Kd, was 0.02 nM and the “fold greater binding strength than hOKT3IgG-AA” value was 7.5 fold.

B3: low-Fc binding anti-human CD3 antibody-hOKT3IgG-AA (antibody, V domains shown)
VH: B2 VH
VL: DIQMTQSPSSLSASVGDRVTITCSASSSVSYMNWYQQTPGKAPKRWIYDTSKLASGVPSRFSGSGSGTDYTFTISSLQPEDIATYYCQQWSSNPFTFGQGTKLQIT
notes: also called hOKT3IgG-AA (dimer)
The molecule B3 came in with a Kd in assay [2] of 0.15 nM.

One may read the Kd as the equilibrium constant for the complex coming apart. The low end stands for a tighter complex, the high end for a looser complex.
